According to patent publication US20150079112A1 (SAMSUNG ELECTRONICS, published 2015):

What was measured:
Test in all cases: ELISA, coated antibody 1000 nM, 250 ng FLAG-tagged mutant Ang2, anti-FLAG-HRP, OD450
[1] = molecular target: T1, mutant Ang2 protein, N421 substituted with alanine, FLAG-tagged at its N-terminal (human, UniProt O15123 19-496, limits assumed)
T1 sequence: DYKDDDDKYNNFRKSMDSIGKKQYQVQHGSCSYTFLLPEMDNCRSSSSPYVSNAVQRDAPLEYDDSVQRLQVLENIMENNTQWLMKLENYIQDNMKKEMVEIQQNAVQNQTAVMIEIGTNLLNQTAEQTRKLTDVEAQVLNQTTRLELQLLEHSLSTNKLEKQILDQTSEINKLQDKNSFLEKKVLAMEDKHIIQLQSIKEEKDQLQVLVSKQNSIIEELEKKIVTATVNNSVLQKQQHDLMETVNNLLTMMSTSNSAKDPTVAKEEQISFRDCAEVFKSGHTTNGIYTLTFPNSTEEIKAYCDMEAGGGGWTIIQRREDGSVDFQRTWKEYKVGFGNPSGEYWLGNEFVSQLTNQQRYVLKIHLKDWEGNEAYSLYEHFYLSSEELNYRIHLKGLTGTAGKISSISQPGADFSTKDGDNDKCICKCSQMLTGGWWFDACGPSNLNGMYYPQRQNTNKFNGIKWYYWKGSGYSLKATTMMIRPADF
Method: (§1) Each well of a 96-well MaxiSorp™ flat-bottom plate (Nunc) was coated with 50 ul (microliter) of 1000 nM antibody. Then, the plate was washed five times with 0.05% (v/v) Tween-20-containing PBS (PBST) and blocked with 1% (v/v) BSA-containing PBS at a room temperature for 2 hours. 250 ng of each mutant Ang2 protein obtained by substituting S417, Q418, P419, N421, I434, D448, A449, P452, Y460, N467, K468, or F469 residue of Ang2 protein tagged with a FLAG sequence ([…], Sigma) at its N-terminal with alanine was added to each well of the plate, which was then allowed to react at a room temperature for 2 hours.
(§2) The plate was washed five times with 0.05% (v/v) Tween-20 containing PBS, reacted with an anti-FLAG antibody (SIGMA) conjugated with HRP which was diluted in 1% (v/v) BSA-containing PBS at a ratio of 1:5,000 (v/v) at a room temperature for 1 hour, and washed five times with 0.1% (v/v) Tween-20-containing PBS.
(§3) Finally, 50 ul of TMB substrates (Cell signaling) was added to each well of the plate to induce color development at a room temperature for 3 min. and the reaction was ceased by the addition of 50 ul of Stop solution (Cell signaling) and then, OD450 values were measured on a plate reader (Molecular Devices). By comparing binding affinities with mutated Ang2 to those of unmutated Ang2, each epitope of Ang2 antibodies was identified. The thus obtained measurement results of the binding affinities (%) with mutant Ang2 against the binding affinity with the native Ang2 are shown in the following Table 8.

[2] = molecular target: T2, mutant Ang2 protein, Y460 substituted with alanine, FLAG-tagged at its N-terminal (human, UniProt O15123 19-496, limits assumed)
T2 sequence: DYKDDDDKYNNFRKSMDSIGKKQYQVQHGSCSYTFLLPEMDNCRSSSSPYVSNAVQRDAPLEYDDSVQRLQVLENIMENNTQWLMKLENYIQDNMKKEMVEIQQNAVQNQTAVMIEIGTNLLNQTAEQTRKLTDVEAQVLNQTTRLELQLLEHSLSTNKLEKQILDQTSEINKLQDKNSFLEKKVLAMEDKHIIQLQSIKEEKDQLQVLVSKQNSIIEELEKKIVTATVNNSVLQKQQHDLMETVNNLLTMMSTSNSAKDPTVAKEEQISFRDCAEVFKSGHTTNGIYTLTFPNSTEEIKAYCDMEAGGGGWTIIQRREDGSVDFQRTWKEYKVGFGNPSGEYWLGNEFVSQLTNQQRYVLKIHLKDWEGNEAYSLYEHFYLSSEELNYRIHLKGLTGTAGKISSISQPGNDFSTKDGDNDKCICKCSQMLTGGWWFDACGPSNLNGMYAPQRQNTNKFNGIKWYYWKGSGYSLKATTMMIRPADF
Method: as §1, §2, §3

[3] = molecular target: T3, mutant Ang2 protein, N467 substituted with alanine, FLAG-tagged at its N-terminal (human, UniProt O15123 19-496, limits assumed)
T3 sequence: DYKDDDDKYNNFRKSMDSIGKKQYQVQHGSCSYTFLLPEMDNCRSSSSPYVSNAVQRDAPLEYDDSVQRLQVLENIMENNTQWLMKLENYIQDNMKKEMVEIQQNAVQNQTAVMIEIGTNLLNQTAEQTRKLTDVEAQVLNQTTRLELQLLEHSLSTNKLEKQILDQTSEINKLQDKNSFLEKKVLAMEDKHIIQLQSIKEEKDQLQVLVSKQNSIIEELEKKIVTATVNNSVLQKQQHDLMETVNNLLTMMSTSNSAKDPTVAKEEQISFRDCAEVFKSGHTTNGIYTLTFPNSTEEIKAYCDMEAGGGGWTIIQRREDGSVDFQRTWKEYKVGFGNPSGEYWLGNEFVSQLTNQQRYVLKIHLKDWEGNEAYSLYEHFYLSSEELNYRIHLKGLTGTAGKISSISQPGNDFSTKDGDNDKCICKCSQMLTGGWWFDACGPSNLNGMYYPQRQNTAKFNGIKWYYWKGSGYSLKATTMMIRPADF
Method: as §1, §2, §3

[4] = molecular target: T4, mutant Ang2 protein, S417 substituted with alanine, FLAG-tagged at its N-terminal (human, UniProt O15123 19-496, limits assumed)
T4 sequence: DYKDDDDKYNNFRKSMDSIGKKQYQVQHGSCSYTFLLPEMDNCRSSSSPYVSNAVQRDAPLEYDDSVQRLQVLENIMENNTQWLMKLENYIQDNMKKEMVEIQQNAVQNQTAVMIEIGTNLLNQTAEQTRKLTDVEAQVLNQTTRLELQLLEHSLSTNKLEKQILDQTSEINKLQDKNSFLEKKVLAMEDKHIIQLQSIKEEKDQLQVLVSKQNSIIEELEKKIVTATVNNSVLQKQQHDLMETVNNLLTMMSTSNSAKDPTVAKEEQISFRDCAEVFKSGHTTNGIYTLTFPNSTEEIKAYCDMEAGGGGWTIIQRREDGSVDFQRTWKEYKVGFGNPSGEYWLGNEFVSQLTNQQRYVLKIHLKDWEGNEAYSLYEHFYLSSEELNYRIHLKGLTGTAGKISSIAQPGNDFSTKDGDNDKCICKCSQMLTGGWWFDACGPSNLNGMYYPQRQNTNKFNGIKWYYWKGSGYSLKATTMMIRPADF
Method: as §1, §2, §3

B1: SAIT-ANG2-AB-m10D6 (antibody, V domains shown)
VH: DVQLQESGPGLVKPSQSLSLTCTVTGYSITSDYAWNWIRQFPGNKLEWMGYINYSGNTDYNPSLKSRSSITRDTSKNQFFLQLNSVTTGDTATYYCARGNFEGAMDYWGQGTSVTVSS
VL: SIVMTQTPKFLLVSAGDRVTITCKASQSVSNDVAWYQQKPGQSPKLLIYYASNRYPGVPDRFTGSGYGTDFTFTISTVQAEDLAVYFCQQDYSSPWTFGGGTKLEIK
notes: also called antibody 10D6; anti-Ang2 antibody (10D6)
B1 was tested, and the “binding affinity (%) with mutant Ang2 against the binding affinity with the native Ang2” value (“binding affinity (%) with mutant Ang2” for short) [1] was 109%, the “binding affinity (%) with mutant Ang2” value [2] was 103% and the “binding affinity (%) with mutant Ang2” value [3] was 107%. The “binding affinity (%) with mutant Ang2” value [4] was 101%.
